According to patent US20240207401A1 (IMPERIAL COLLEGE INNOVATIONS, published 2024):
Where two headings read alike, the source gives them in different places.

Legend:
[1] = biological target: T1, SARS-CoV-2 spike trimer (COVID19 S ectodomain, residues 1-1208) (SARS-CoV-2, UniProt P0DTC2 14-1208)
[2] = biological target: T2, MERS-CoV spike trimer (S ectodomain protein) (MERS-CoV, UniProt K9N5Q8 18-1296); assay: MERS-CoV spike
T2 construct: also called MERS-CoV S ectodomain; MERS-CoV spike protein

[3] = biological target: T3, SARS-CoV spike trimer (S ectodomain protein) (SARS-CoV, UniProt P59594 14-1195); assay: SARS-CoV spike
T3 construct: also called SARS-CoV S ectodomain; SARS-CoV spike protein

[4] = biological target: T1, SARS-CoV-2 spike trimer (COVID19 S …); remark: listed apart in the source
[5] = biological target: T3, SARS-CoV spike trimer (S ectodomain …)
[6] = biological target: T2, MERS-CoV spike trimer (S ectodomain …)
[7] = biological target: T1, SARS-CoV-2 spike trimer (COVID19 S …); remark: listed apart in the source
[8] = biological target: T3, SARS-CoV spike trimer (S ectodomain …); remark: listed apart in the source
[9] = biological target: T4, SARS-CoV spike protein, full length on virus (SARS-CoV, UniProt P59594 14-1255); assay: cell-based or functional assay
[10] = biological target: T5, MERS-CoV spike protein, full length on virus or transfected cells (MERS-CoV, UniProt K9N5Q8 18-1353); assay: cell-based or functional assay
[11] = biological target: SARS-CoV-2 S protein, membrane form (SARS-CoV-2, UniProt P0DTC2 14-1273); assay: cell-based or functional assay
[12] = biological target: T4, SARS-CoV spike protein, full length on …; assay: cell-based or functional assay; remark: listed apart in the source
[13] = biological target: T5, MERS-CoV spike protein, full length on …; assay: cell-based or functional assay; remark: listed apart in the source
[14] = biological target: T1, SARS-CoV-2 spike trimer (COVID19 S …); assay: ELISA on spike trimer, IgG titrated

Binder | EC50 [1] | fold weaker binding affinity than ACE2 [1] | EC50 [2] | EC50 [3] | Kd [4] | Kd [5] | Kd [6] | EC50 [7] | EC50 [8] | neutralization of SARS-CoV pseudovirus (IC50) [9] | neutralization of MERS-CoV pseudovirus (IC50) [10] | IC50, neutralisation [11] | IC50, neutralisation [12] | IC50, neutralisation [13] | EC50 (read off the curve) [14]
IC001 (antibody, V domains shown, also called CoV-bnMAB; mAb IC001) VH: QVQLVQSGAEVKKPGASVKVSCKASGYTFTSYAMHWVRQAPGQRLEWMGWINAGNGNTKYSQKFQGRVTITRDTSASTAYMELSSLRSEDTAVYYCARDRHMVVPAAVFDYWGQGTLVTVSS VL: AIQLTQSPSTLSASVGDRVTITCRASQSISSWLAWYQQKPGKAPKLLIYKASSLESGVPSRFSGSGSGTEFTLTISSLQPDDFATYYCQQYGTFGQGTKWISN | 586 nM | ~7 fold | 857 nM | 520 nM | 700 nM | 700 nM | 1200 nM | 520 nM | 586 nM | 1.8 µg/mL | 2.9 µg/mL | 2.2 µg/mL | 2.8 µg/mL | 3 µg/mL | 
IC008 (antibody, V domains shown, also called CoV-bnMAB; mAb IC008) VH: LVQLQESGPRLVTPSETLSLTCTVSGGSISSSRHYWGWIRQPPGMGLEWIGSIDYSGGTYCNPSLKSRVTISEDTSKNQFSLKVNSVTAADTAVYYCARQVGHSGRGHNWFDPWGQGTLVTVSS VL: DIQMTQSPSSLSASVGDRVTITCRASQSIYNYLNWYQQKPGKAPKFLIYAASTLQTGVPSRFSGSGSGTDFTLTISSLQPEDFATYYCQQSYSSSVTFGQGTRLEIK |  |  |  |  |  |  |  |  |  |  |  | 4.5 µg/mL | 3 µg/mL | 2.9 µg/mL | ~2 nM
